Residue numbers refer to the chain shown, from its start. Numbers in names are those of the source.
T1: Boc-Glu(OBzl)-Ala-Arg-MCA
T1 chain: EAR

T2: human high-molecular-weight (HMW) kininogen, P01042
T2 chain: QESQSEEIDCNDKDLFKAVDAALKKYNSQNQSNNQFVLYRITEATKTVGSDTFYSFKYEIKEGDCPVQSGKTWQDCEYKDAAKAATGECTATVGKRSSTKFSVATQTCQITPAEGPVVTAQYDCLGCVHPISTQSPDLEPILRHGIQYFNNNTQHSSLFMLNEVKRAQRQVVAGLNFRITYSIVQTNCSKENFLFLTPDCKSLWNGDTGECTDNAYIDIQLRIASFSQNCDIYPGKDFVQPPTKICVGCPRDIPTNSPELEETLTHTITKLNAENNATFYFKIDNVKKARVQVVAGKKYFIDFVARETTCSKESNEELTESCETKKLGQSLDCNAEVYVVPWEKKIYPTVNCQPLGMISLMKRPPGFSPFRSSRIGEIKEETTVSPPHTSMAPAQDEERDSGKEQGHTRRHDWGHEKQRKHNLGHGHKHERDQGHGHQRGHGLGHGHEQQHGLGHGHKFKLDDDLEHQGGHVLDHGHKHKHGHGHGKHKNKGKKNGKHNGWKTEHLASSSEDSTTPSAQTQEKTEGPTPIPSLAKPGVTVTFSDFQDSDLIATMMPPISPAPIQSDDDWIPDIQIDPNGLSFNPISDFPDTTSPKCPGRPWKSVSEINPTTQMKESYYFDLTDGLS

T3: Gly-Asp-Asp-Asp-Asp-Lys-β-naphthylamide
T3 chain: GDDDDK

T4: Z-Phe-Arg-MCA
T4 chain: FR

T5: human fibrinogen, P02671
T5 chain 1: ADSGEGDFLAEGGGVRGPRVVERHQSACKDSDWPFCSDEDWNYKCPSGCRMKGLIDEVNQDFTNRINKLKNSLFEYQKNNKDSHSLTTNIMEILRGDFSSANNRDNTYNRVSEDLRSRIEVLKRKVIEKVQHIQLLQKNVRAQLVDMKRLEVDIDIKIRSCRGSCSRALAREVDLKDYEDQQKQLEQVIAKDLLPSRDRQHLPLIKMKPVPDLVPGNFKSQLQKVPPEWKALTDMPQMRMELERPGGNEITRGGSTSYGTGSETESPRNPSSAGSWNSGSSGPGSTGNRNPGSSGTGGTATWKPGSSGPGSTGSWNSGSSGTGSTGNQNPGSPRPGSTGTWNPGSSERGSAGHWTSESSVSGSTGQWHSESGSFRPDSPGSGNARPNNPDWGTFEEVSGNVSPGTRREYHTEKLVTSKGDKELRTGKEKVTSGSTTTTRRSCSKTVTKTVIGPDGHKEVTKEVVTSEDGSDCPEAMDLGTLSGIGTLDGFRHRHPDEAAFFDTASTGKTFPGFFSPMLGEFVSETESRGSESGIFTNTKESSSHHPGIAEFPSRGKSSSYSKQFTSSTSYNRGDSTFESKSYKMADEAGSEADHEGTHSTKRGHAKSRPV
T5 chain 2: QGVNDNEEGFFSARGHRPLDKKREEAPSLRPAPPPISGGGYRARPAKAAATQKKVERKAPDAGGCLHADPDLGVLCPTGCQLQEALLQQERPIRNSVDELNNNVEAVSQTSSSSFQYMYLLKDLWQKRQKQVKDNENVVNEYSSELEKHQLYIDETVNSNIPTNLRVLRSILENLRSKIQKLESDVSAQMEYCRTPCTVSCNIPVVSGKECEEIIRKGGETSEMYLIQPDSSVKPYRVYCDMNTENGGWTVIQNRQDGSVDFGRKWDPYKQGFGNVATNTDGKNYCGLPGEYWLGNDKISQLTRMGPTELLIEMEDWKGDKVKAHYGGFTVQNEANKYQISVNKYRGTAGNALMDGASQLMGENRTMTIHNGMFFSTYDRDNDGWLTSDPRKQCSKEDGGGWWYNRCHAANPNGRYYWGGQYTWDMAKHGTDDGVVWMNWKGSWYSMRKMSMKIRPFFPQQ
T5 chain 3: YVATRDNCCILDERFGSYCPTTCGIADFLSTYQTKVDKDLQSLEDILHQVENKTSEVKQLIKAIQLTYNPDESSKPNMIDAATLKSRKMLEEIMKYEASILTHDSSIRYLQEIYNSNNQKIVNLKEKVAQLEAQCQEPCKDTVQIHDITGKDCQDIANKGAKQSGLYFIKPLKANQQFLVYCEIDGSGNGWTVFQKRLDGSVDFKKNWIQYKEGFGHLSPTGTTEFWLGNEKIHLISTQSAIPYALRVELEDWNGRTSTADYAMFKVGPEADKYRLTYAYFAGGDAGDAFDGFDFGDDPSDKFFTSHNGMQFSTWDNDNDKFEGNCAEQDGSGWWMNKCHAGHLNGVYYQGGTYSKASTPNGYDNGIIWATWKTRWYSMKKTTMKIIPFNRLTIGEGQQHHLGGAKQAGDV

T6: Pro-Phe-Arg-MCA
T6 chain: PFR

B1: Medaka EP-1 serine protease domain mutant K63R (protein)
chain: VVGGVNAEKGAWPWMVSLHWRGRHGCGASLIGRDWLLTAAHCVYGRNTHLQYWSAVLGLHAQSSMNSQEVQIRQVDRIIINKNYNRRTKEADIAMMHLQQPVNFTEWVLPVCLASEDQHFPAGRRCFIAGWGRDAEGGSLPDILQEAEVPLVDQDECQRLLPEYTFTSSMLCAGYPEGGVDSCQGDSGGPLMCLEDARWTLIGVTSFGVGCGRPERPGAYARVSAFTSWIAETRRSSFSDLD
B2: Medaka EP-1 serine protease domain mutant P193E (protein)
chain: B1 chain with R46K, P176E
B3: Medaka EP-1 serine protease domain mutant T105E (protein)
chain: B1 chain with R46K, T88E
B4: Bovine EP serine protease (New England Biolabs) (protein)
chain: IVGGSDSREGAWPWVVALYFDDQQVCGASLVSRDWLVSAAHCVYGRNMEPSKWKAVLGLHMASNLTSPQIETRLIDQIVINPHYNKRRKNNDIAMMHLEMKVNYTDYIQPICLPEENQVFPPGRICSIAGWGALIYQGSTADVLQEADVPLLSNEKCQQQMPEYNITENMVCAGYEAGGVDSCQGDSGGPLMCQENNRWLLAGVTSFGYQCALPNRPGVYARVPRFTEWIQSFLH

Each protein was assayed against Human plasma fibronectin, P02751.
Human plasma fibronectin, P02751, sequence (P02751 other isoform, or with tags, fused parts or gaps): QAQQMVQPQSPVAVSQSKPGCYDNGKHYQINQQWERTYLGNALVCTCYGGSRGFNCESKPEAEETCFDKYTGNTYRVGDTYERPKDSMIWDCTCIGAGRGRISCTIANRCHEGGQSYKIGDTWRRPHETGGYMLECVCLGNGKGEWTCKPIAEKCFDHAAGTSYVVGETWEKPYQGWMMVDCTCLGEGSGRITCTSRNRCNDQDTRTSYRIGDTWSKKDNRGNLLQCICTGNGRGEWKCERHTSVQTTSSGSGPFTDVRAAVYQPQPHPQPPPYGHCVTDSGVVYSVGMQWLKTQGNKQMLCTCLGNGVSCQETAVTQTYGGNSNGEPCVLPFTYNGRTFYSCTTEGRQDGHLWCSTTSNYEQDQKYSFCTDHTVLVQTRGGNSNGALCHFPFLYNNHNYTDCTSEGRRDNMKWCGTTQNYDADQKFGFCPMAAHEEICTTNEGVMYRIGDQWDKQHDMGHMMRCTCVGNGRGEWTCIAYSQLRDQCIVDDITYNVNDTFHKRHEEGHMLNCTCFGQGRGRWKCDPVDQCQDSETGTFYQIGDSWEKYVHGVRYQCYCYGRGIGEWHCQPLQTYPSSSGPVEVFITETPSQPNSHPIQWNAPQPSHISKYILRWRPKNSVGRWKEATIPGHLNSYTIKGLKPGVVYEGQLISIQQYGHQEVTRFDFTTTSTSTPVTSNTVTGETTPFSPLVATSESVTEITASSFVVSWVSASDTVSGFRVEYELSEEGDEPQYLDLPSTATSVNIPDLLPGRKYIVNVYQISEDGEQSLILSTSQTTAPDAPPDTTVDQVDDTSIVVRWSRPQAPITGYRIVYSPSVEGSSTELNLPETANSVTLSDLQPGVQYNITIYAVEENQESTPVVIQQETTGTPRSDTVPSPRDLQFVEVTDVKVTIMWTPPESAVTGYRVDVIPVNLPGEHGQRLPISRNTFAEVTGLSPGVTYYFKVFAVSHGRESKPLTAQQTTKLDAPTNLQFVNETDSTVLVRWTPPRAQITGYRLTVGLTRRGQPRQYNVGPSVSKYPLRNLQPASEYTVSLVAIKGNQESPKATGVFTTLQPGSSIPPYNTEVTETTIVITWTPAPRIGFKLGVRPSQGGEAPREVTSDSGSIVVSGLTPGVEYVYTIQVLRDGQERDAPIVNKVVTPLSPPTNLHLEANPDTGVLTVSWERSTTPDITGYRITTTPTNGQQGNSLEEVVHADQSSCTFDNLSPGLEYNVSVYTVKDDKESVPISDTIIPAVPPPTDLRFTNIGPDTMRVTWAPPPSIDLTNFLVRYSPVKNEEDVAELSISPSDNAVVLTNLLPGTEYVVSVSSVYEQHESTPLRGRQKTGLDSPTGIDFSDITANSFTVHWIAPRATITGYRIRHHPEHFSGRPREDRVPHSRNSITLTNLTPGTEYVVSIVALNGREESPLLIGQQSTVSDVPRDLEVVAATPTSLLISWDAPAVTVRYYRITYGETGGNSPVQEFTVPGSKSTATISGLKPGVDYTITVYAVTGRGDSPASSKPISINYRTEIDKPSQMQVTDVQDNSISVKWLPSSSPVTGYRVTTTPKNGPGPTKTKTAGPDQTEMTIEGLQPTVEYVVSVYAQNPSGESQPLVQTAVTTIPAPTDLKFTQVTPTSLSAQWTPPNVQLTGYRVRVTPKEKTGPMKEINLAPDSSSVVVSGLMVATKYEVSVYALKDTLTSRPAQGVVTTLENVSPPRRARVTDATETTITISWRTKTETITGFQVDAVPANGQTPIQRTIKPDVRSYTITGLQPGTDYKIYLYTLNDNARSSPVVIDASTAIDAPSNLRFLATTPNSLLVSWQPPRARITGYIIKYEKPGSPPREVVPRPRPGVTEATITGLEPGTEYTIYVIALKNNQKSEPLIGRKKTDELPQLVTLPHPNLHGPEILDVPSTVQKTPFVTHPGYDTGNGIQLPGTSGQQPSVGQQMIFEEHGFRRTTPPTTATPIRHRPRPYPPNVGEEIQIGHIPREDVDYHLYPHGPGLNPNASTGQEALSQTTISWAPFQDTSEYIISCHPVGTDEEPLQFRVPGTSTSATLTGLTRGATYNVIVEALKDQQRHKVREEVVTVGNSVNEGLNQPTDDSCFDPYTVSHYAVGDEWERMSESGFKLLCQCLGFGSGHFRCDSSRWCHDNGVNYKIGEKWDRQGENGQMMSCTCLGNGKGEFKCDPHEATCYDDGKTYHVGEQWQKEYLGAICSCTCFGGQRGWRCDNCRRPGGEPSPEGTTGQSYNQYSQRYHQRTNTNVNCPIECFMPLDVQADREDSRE

Protein	hydrolysis	proteolytic activity (SDS-PAGE)
B1	Neither human fibronectin nor laminin was hydrolyzed by the mutants (data not shown)	
B2	Neither human fibronectin nor laminin was hydrolyzed by the mutants (data not shown)	
B3	Neither human fibronectin nor laminin was hydrolyzed by the mutants (data not shown)	
B4		these substrates were detectably hydrolyzed by the mammalian proteases

Target: T1, Boc-Glu(OBzl)-Ala-Arg-MCA

Protein	Km	enzyme activity against wild-type	kcat	kcat/Km (mM^-1 · min^-1)
B1	1200 µM	consistently resulted in reduced enzyme activity for synthetic peptide substrates	0.2 s⁻¹	10
B2	200 µM	consistently resulted in reduced enzyme activity for synthetic peptide substrates	0.0383 s⁻¹	12
B3	1300 µM	consistently resulted in reduced enzyme activity for synthetic peptide substrates	0.183 s⁻¹	9
B4	400 µM		9.5 s⁻¹	1400

Each protein was assayed against mouse laminin.

Protein	hydrolysis	proteolytic activity (SDS-PAGE)
B1	Neither human fibronectin nor laminin was hydrolyzed by the mutants (data not shown)	
B2	Neither human fibronectin nor laminin was hydrolyzed by the mutants (data not shown)	
B3	Neither human fibronectin nor laminin was hydrolyzed by the mutants (data not shown)	
B4		these substrates were detectably hydrolyzed by the mammalian proteases

Each protein was assayed against gelatin.

Protein	proteolytic activity (gelatin zymography)
B4	these substrates were detectably hydrolyzed by the mammalian proteases

Target: T2, human high-molecular-weight (HMW) …

Protein	nonspecific proteolytic activity (SDS-PAGE)
B1	The mutant proteases had lower nonspecific proteolytic activity for human HMW kininogen
B2	The mutant proteases had lower nonspecific proteolytic activity for human HMW kininogen
B3	The mutant proteases had lower nonspecific proteolytic activity for human HMW kininogen
B4	both of which were degraded noticeably by mammalian EP proteases

Target: T3, Gly-Asp-Asp-Asp-Asp-Lys-β-naphthylamide

Protein	Km	enzyme activity against wild-type	kcat	kcat/Km (mM^-1 · min^-1)
B1	200 µM	consistently resulted in reduced enzyme activity for synthetic peptide substrates	3.5 s⁻¹	1100
B2	400 µM	consistently resulted in reduced enzyme activity for synthetic peptide substrates	4.83 s⁻¹	730
B3	400 µM	consistently resulted in reduced enzyme activity for synthetic peptide substrates	4.33 s⁻¹	650
B4	500 µM		25 s⁻¹	3000

Target: T4, Z-Phe-Arg-MCA

Protein	Km	enzyme activity against wild-type	kcat	kcat/Km (mM^-1 · min^-1)
B1	100 µM	consistently resulted in reduced enzyme activity for synthetic peptide substrates	0.0233 s⁻¹	14
B2	200 µM	consistently resulted in reduced enzyme activity for synthetic peptide substrates	0.0283 s⁻¹	9
B3	100 µM	consistently resulted in reduced enzyme activity for synthetic peptide substrates	0.0333 s⁻¹	20
B4	400 µM		10 s⁻¹	1500

Target: T5, human fibrinogen, P02671

Protein	nonspecific proteolytic activity (SDS-PAGE)
B1	The mutant proteases had lower nonspecific proteolytic activity for ... human fibrinogen
B2	The mutant proteases had lower nonspecific proteolytic activity for ... human fibrinogen
B3	The mutant proteases had lower nonspecific proteolytic activity for ... human fibrinogen
B4	both of which were degraded noticeably by mammalian EP proteases

These proteins were tested against recombinant fusion protein of Medaka gelatinase A.

Protein	cleavage of the fusion protein (SDS-PAGE)
B4	the fusion protein was extensively digested by mammalian EP serine proteases

These proteins were tested against human single-chain tPA fusion protein with N-terminal His-tag/EP-cleavage site, P00750.
human single-chain tPA fusion protein with N-terminal His-tag/EP-cleavage site, P00750, sequence (P00750 whole entry, looked up, the tested form may be a part): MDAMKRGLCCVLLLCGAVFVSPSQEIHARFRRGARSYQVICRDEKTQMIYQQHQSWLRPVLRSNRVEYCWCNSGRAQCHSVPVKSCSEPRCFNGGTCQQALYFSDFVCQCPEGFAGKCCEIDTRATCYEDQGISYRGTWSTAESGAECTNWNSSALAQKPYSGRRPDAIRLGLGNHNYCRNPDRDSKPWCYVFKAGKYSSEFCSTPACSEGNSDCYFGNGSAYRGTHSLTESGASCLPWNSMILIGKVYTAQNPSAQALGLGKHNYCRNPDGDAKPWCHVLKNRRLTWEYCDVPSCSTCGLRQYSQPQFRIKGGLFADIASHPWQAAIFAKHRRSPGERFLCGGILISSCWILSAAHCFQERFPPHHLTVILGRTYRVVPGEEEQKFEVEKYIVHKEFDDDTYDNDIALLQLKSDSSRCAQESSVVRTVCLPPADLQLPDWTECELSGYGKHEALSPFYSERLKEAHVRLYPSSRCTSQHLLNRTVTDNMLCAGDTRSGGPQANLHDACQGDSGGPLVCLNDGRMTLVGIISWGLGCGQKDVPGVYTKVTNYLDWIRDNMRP

Protein	cleavage of the fusion protein (SDS-PAGE/Western blot)
B4	but not with mammalian ones, showed two polypeptides (53- and 55-kDa)

Each protein was assayed against recombinant fusion protein of Medaka trypsinogen.

Protein	activation of trypsinogen	conversion of trypsinogen to active enzyme
B1	K63R converted to trypsin as fast as the wild type enzyme	A total of 12 mutants could convert the recombinant Medaka trypsinogen to its active enzyme (data not shown)
B2	the other mutants activated trypsinogen at a reduced rate	A total of 12 mutants could convert the recombinant Medaka trypsinogen to its active enzyme (data not shown)
B3	the other mutants activated trypsinogen at a reduced rate	A total of 12 mutants could convert the recombinant Medaka trypsinogen to its active enzyme (data not shown)

These proteins were tested against D4K-cleavage site-containing control protein (Novagen).

Protein	cleavage of the fusion protein (SDS-PAGE)
B4	the mammalian enzymes not only produced the two expected polypeptides but also further degraded the products

Target: T6, Pro-Phe-Arg-MCA

Protein	Km	enzyme activity against wild-type	kcat	kcat/Km (mM^-1 · min^-1)
B1	1100 µM	consistently resulted in reduced enzyme activity for synthetic peptide substrates	0.183 s⁻¹	10
B2	1000 µM	consistently resulted in reduced enzyme activity for synthetic peptide substrates	0.45 s⁻¹	27
B3	1300 µM	consistently resulted in reduced enzyme activity for synthetic peptide substrates	0.267 s⁻¹	12
B4	2900 µM		21.7 s⁻¹	450

Source: US20080213836
